Test results published in the DeepSol protein solubility set.

Assay: soluble on expression in E. coli; label from the status in PepcDB or PDB records

Sequence	soluble on expression in E. coli
MANKETDILIIGGGLTGASLSLALQGLGFSVTLVESRPYSDKVNPDFDARSLALSPASQRILAMLGVWEILKEYTTPIHMIHVSDQHRFGASRLHGEKNSPLGYVVEMQYINRALSILINKEHLLTPAALKSIDFNNSTATVAHGDDMISIRAQLIVAADGTESMTRYLCNLPVKIKDYAQDAIVANVGLIKPHGNRAFERFTPNGPLALLPMMNDKMSLVWASKPEEAKRLVMLNDDDFLRELQTAFGYRLGRFGKVGKRYSYPLKQVLMPQQTKWPVVFVGNAAHTLHPVAGQGFNLGLRDIAALAQCISQKGLNPQMLEHYLQLRAHDQQMITWLTDGLIHLFTSRLPGMGVARNLGLLALDNIPALKNLLARYARGFGGITPDLVCEIALSAGEFQLEHHHHHH	soluble
MANLFKLGAENIFLGRKAATKEEAIRFAGEQLVKGGYVEPEYVQAMLDREKLTPTYLGESIAVPHGTVEAKDRVLKTGVVFCQYPEGVRFGEEEDDIARLVIGIAARNNEHIQVITSLTNALDDESVIERLAHTTSVDEVLELLAGRK	soluble
MANLQNMSSSPKHTNGSSERSENCGELCVVCGDKASGRHYGAVSCEGCKGFFKRSIRKRIGYVCRSQKDCPVTKFHRNRCQYCRLRKCLSMGMRSESVQAERRPVNNSSMLCNNDNNQQNTTPEHLSPNLLLSLVKLEHETKLGGLEALIKPGSPVMLQNTQDYMDVKRESIGEDEMTVIGLVPPSASPTSSGVGSSSSISDDSGPIYTSERARFEISVPLNTQNPRNHQYISEITTRLLFLTVHFVKDSRVSLRTSTMEGLLKSKWCDLYILALMQTADKIKLGQLLDNLTNQMAMGMECGQYSAEKFEKISEQMQRLLQLSQLFASRELTAVEYAYLKMISFTAQDLPSSMASPETRSVNQMASQELFEYVSSSKSTQNHMSNEHINVDDSTSEDNDTHVTSQQSSVNIAAERFSRILQLLPCLRWFDPATIVEIFFSGLIGPMSIETIIPFVLQMNLMSFFDQKMELGSGGASDTLSTSSLSEMMNNQ	not soluble
MANVYTAEATATGGRAGTTRSSDDRLNLDLSVPAEMGGDGGPGTNPEQLFAAGYAACFQGALGVVSRRNKIDVPADSTITARVGLQKAGLAFALDVELEGHFPGLSREQAEGLMHAAHEVCPYSAATRNNVDVRLKVRE	soluble
MAPKQPEKIENPPMASAPSSEKESGSTENEYGSSGEETNSSDDEHEEARDNVISTPLSFGQELVSFFKVENLTYLGIDEAKWIAYWDMVKDGPKKREVEKQLKKMLAMQMELFMMRTGFTKEVATVLFKQDNASSSGK	not soluble
MAPKTGETVVEKMEVDEAKQDVPATEPAKDLNAIAVENIKEQLAALDKGEEHLITRVLQVLPKTRKQINDNVLYKLVSSHLSSDAQFAEGMLKYLHYTPAADTEVQPMDTSNVKTKSPKKGVKPVFASPESDCYLRLLVLLHLYAQKKNTEALALGENQLTSIYNFDRRTLDGLAAKTLYFLCVIYEREGRLFDHQGFLNSRLRTATLRNFSESQAVLICWLLRCYLINRQYQSAAHLVSKVAFPDNASNNDLARYMYYQGRIKALQLDYNSAAGYFLQAQRKAPQEGAIGFKQAVQKWVVVIGLLQGEIPDRSVFRQPIYRKCLAHYLDLSRGVRDGDVARFNHNLEQFKTQFEADDTLTLIVRLRQNVIKTAIKQISLAYSRIYIKDIAKKLYITNETETEYIVAKAIADGAIDAVITSDVRDGPRYMQSSETADIYRTSEPQAHFDTRIRYCLELHNQAVKALRYPPKKKIAVETIEQAREREQQELEFAKELADEDDDDF	not soluble
MAPPEGGEYLHKVTANSMSVNGDVPETVTAALADQRVEGRVCLEAGAGVGNTTAGLLAAGAKRVYAVTNDADHAATVRDRIGDRNADRLAVIEADLRATPLATDSVDLVAAHGLCNVLPPAELAPIAAELTRVAKPDGCLVVDDYAVPPADAAVNRLFALENAAARVVDGRPVLTFYPPAVLVAVFAANGWSVERRKTLLNPVPWTEAHLDAHAEVVREYAAALPDSLGEPLTAMAEDLVAAIGSERTGTMYSLAFRRADA	not soluble
MAPTLAEAEKFLRNSKIDKIVLEKLAEILVTTMDDWNLIADQKVAESVWVVLTEAGRSGNLSENLGDGDVAKQLKSVFEKIRLRLQAQLGTIQWKNDELVDYDVTISKNNKSSLHADHTFQRVVLTLKVIPAGKMDVEALVVDFDEAQLNDFIWKLLEAKAMMDRIQKRVESR	not soluble
MAQENSTVKPTQAELTLLNVLWKMGPATVRQVHDVVSTTQKTGYTTVLKILQIMHEKSLVIRDESNRAHVYAAANSQTQTQSSLIKDLISKAFGGSTSKLVMRAIDDSTSEQEINDIRQLLNSLEK	not soluble
MAQFLEKATSALSEAKESVTSTAESVTASLTDAEKTVNQTARSTLTDAETTVAASVETVKTEAAAAPDKASGVSTQAKDAVDKAFSRGIEGAKSLLQTFEAKSSDISSKLVGGVTNLVSGASSSTVANRDLPVSTDNQPLLASGEKTPWWKNCCGVLDLFKKDT	soluble
MAQKVEAGGGAGGASWDDGVHDGVRKVHVGQGQDGVSSINVVYAKDSQDVEGGEHGKKTLLGFETFEVDADDYIVAVQVTYDNVFGQDSDIITSITFNTFKGKTSPPYGLETQKKFVLKDKNGGKLVGFHGRAGEALYALGAYFATTTTPVTPAKKLSAIGGDEGTAWDDGAYDGVKKVYVGQGQDGISAVKFEYNKGAENIVGGEHGKPTLLGFEEFEIDYPSEYITAVEGTYDKIFGSDGLIITMLRFKTNKQTSAPFGLEAGTAFELKEEGHKIVGFHGKASELLHQFGVHVMPLTN	soluble
MAQNLPTIALLATGGTIAGSGVDASLGSYKSGELGVKELLKAIPSLNKIARIQGEQVSNIGSQDMNEEIWFKLAQRAQELLDDSRIQGVVITHGTDTLEESAYFLNLVLHSTKPVVLVGAMRNASSLSADGALNLYEAVSVAVNEKSANKGVLVVMDDTIFSVREVVKTHTTHVSTFKALNSGAIGSVYYGKTRYYMQPLRKHTTESEFSLSQLKTPLPKVDIIYTHAGMTPDLFQASLNSHAKGVVIAGVGNGNVSAGFLKAMQEASQMGVVIVRSSRVGSGGVTSGEIDDKAYGFITSDNLNPQKARVLLQLALTKTNDKAKIQEMFEEY	soluble
MAQPYLPAEKFLSRKQETILLDEDEPAVVSSVRISPKKPYHVATTSSVRLTLYDTVVCEPLNLFSRFKKGVCSIDFRHDGRLLAIGGDEGKVRIFDVEKTTGSSKVALRVMQASQSTVKSVHFSPRGDTVFSMADDGKIKQYRVADTAYGVNAVPIIEIQAHEDAIRCGAVSSINDHIVLTGGYDHKVRLWDIRSKEKSLELDCEHPVESVLFLPGEQLIATAAGPIVKIWDTTTGRQLTALQAHYKTVTSLRLATNSTCLLSAGIDRRVNAFRTTNYSLINSWSMPSPVLDIDVSRDDQTMAIGMGNLLALYRRAEIKKEATASAAIEDKRSLIRTSAPPVKLVEKDRDMQKVDVVAKNADKLKIPKIDGMLSNFKHAAVIKLLFGGKFRSAMDTAVVSYLRVIVMRGAIHRALAGQERSVQKNILVFLNHNLYKAQYFSTLKEVVNAFFDVYALEKLDKDVVKHVQSLRGSLGRELEVQKMISSLIGSIDLIVSTTKMNVKSSSTALIEDNDVFGEPTIRARDLDELKPSDQGAEEEYEENMQIN	not soluble
MAQSNTTTTTLVVKSEDQEEVQEEHVLRLRAPPSPPHVTWAEGVVDNEHMGRLKSNCCCIYVAPRQWDDPSTWEPNEYETEHCRGHTLPERKKKKEDGGDEGDDENKENKDNKDNKDNKDNKDNNGCGCDHC	not soluble
MAQTTLIKNVNGYTFTDNSLTQFSAISFTDDIINKVYPIGAVLPASKGVIVIDGQGQTMLPGLIDAHGHVIGYGHSLEHHHHHH	not soluble
MAQVKTQRLYYSLKDYFKEKYGKRVQKITVALPFTCPNRDGTKGRGGCTYCYDGSKPSMLSPVIPLEVQIKEGIERAKKKYGEDIYFTIYYQSYTNTYADIETLKKVYDTALKFEGVVGIDVGTRPDCAPEEVLDLLEYYANKGLEVWVEYGLQSANFETLKKINRQHGVSDFVDAVLRTKKRNLKVCAHMIIGLPGETREDFIETAKLIASLPIDGIKIHPLHVIKGTVMEKQYLNEEFKTLTLEEYAEYCADVIELLPPDMVVHRITGETDEERLIAPEWCTFKYKNAVIQKVRETLERRGTYQGARYPFYKYGVLEHHHHHH	soluble
MAREKVSLTEFNLFSEGILEQGSSVRALEWAPIVPFADRAGFEQESRKALKKDFAIIELLANGNTIPAQSRTQYAPLYYIYPQYNNQEALGLDVYSNPTHILSMQVVVNSKAVIASAPITLVQDELAKPGMLFSKAVFLPPEVNELASNEAQQKLSIIKEGKLLGFVVAVAQFDSFFEQLAQQKEQEVSFFIQDVSGSQPLSLFGQAFPTVNRHVDTITIEVFSRLWQIDIALEHHHHHH	not soluble
MARGPGPLGMPRPDTVAMPKRGKRLKFRAHDACSGRVTVADYANSDPAVVRSGRVKKAIANAVQQEVKSLCGLEASQVPAEEALSGAGEPCDIIDSSDEMDAQEESIHERTVSRKKKSKRHKEELDGAGGEEYPMDIWLLLASYIRPEDIVNFSLICKNAWTVTCTAAFWTRLYRRHYTLDASLPLRLRPESMEKLRCLRACVIRSLYHMYEPFAARISKNPAIPESTPSTLKNSK	not soluble
MARIRVVQGDITEFQGDAIVNAANNYLKLGAGVAGAILRKGGPSIQEECDRIGKIRVGEAAVTGAGNLPVRYVIHAAVLGDEPASLETVRKATKSALEKAVELGLKTVAFPLLGTGVGGLPVEAVARVMLEEIKKAPDTLEVTLYGYREEDAEAIRRAL	soluble
MARPIGIYEKATPKHFTWLERLNFAKELGFDFVELSIDESDERLARLDWSKKERLELVNAIFETGVRIPTITFSGHRRYPLGSNDSEKEARALEMMEKCIEFAQDIGIRNIQLAGYDVYYEEKSPKTRARFLKNLRQACTWAEEAQVILSIEIMDDPFINSIEKYLAVEKEIDSPYLFVYPDAGNVSAWGNDLWSEFYIGHKSIAALHLKDTYAVTESSKGQFRDVPFGQGCVDWEAMFDVLKKTNYNGPFLIEMWSENCETVEETRAAIKEAQDFLYPLIEKAGLR	not soluble
MARPKTQSERMIILERIIGLVKEQGRITTNDVVAIFGVHRTTAEKYLRIALERGGFIRHGRCGIFRDQRAVIDYDLRRYSSSQVTGFSALPVLEKSPVMQVYGASKMSINKGGAQ	not soluble
MARRIGHPYQNRTPPKRKKPRTSFTRIQVAELEKRFHKQKYLASAERAALARGLKMTDAQVKTWFQNRRTKWRRQTAEEREAERQAANRLMLS	soluble
MARVAIPSVGKDLSSMVSDRFARAEYFIIYDTESGNVEVVENTIADAHGTGPKVVQSLVSKGVEYLIASNVGRNAFETLKAAGVKVYRFEGGTVQEAIDAFSEGRLEELTTFTREG	soluble
MARVTTGITSSHIPALGAAIQTGTSDNDYWGPVFKGYQPIRDWIKQPGNMPDVVILVYNDHASAFDMNIIPTFAIGCAETFKPADEGWGPRPVPDVKGHPDLAWHIAQSLILDEFDMTIMNQMDVDHGCTVPLSMIFGEPEEWPCKVIPFPVNVVTYPPPSGKRCFALGDSIRAAVESFPEDLNVHVWGTGGMSHQLQGPRAGLINKEFDLNFIDKLISDPEELSKMPHIQYLRESGSEGVELVMWLIMRGALPEKVRDLYTFYHIPASNTALGAMILQPEETAGTPLEPRKVMSGHSLAQA	soluble
MASAAKGKILAVIGDEDTVVGFLLGGVGELNKARKPNYLIVDKQTTVQEIEEAFNGFCARDDIAIILINQHIAEMIRYAVDNHTQSIPAVLEIPSKEAPYDPSKDSILNRARGLFNPEDFR	soluble
